The text below walks through data of the RNAGym collection of RNA variant scans (doi:10.7554/elife.80360).

The labels stand for the following.
B1: Hairpin Ribozyme (parent)
chain: GUCCUCUUUCACGUGCGCGUGAAAGAGAGAAGUGAACCAGAGAAACACACGUUGUGGUAUAUUACCUGGUA

Variants of B1 are the subject of the series. Kind of series: self-cleavage, relative activity (ratio to wild type); higher = more cleavage; co-transcriptional.
For the variant A35U G56A, the self-cleavage came to 0.143.

A24G U53G: the self-cleavage amounted to 0.591.

Turning to U2G U7C, the self-cleavage was found to be 0.384.

With G13U G51U, the self-cleavage amounted to 0.887.

As for A30U A39C, the self-cleavage was 0.111.

With A49G, the self-cleavage was determined as 0.57.

In the case of C50U U70G, the self-cleavage came to 0.178.

Regarding G19C C65G, the self-cleavage is 0.25.

For the variant U5C U33A, the self-cleavage was 0.149.

On to A24G A43C, for which the self-cleavage came to 0.19.

Turning to A39G A59G, the self-cleavage was 0.116.

For the variant A36G C48U, the self-cleavage worked out at 0.228.

For the variant C4A, the self-cleavage was found to be 0.218.

For U5C C18A, the self-cleavage came out at 0.699.

C12U C66G: the self-cleavage worked out at 0.126.

For C6U A24U, the self-cleavage was determined as 0.781.

Consider U7A U9C, for which the self-cleavage stood at 0.714.

Turning to G42U G56C, the self-cleavage was 0.147.

Consider C4G U20A, for which the self-cleavage amounted to 0.225.

Turning to U33A U55A, the self-cleavage stood at 0.0922.

In the case of A24G U67C, the self-cleavage came to 0.222.

In the case of U2A U60G, the self-cleavage amounted to 0.222.

Take A22C G29C: the self-cleavage came out at 0.0774.

For A36C U60G, the self-cleavage came out at 0.361.

As to U63A C65G, the self-cleavage was 0.173.

In the case of G57A A59C, the self-cleavage came out at 0.142.

As to A11U A28U, the self-cleavage worked out at 0.494.

For the variant G1A A24U, the self-cleavage was found to be 0.191.

For U14A C48A, the self-cleavage stood at 0.179.

Take A11U A24G: the self-cleavage is 0.813.

For the variant C18G U70C, the self-cleavage came to 0.881.

Consider U14C A36U, for which the self-cleavage was 0.844.

Regarding A64G C66G, the self-cleavage is 0.226.

On to G25U G54A, for which the self-cleavage amounted to 0.496.

On to A31G G57U, for which the self-cleavage was 0.23.

Regarding C16G A45U, the self-cleavage amounted to 0.229.

Regarding A36C C38G, the self-cleavage amounted to 0.117.

As for A24G G56U, the self-cleavage stood at 0.122.

Regarding G34C U55C, the self-cleavage amounted to 1.19.

As for C3G A31U, the self-cleavage came out at 0.057.

On to G29C C65G, for which the self-cleavage was found to be 0.209.

Regarding A23U U70C, the self-cleavage was 0.909.

In the case of G25A G56A, the self-cleavage was found to be 0.105.

With C46A U62G, the self-cleavage worked out at 0.0929.

Consider G34C C65U, for which the self-cleavage was 1.04.

As for A47U G51U, the self-cleavage is 0.166.

For G21A U53C, the self-cleavage turned out to be 0.739.

In the case of A45C C48G, the self-cleavage was found to be 0.188.

In the case of G40U C65A, the self-cleavage amounted to 0.158.

As for G40A U63G, the self-cleavage came to 0.126.

Regarding G21C C38A, the self-cleavage stood at 0.18.

Take C46G U53C: the self-cleavage was found to be 0.0868.

With C3G U60G, the self-cleavage is 0.0943.

Regarding G40A U52C, the self-cleavage amounted to 0.347.

Consider A45C U53G, for which the self-cleavage amounted to 0.138.

G27U G29A: the self-cleavage was determined as 0.225.

Regarding G1C U33C, the self-cleavage worked out at 0.134.

On to C10G U70A, for which the self-cleavage was determined as 0.592.

As for U2C C46U, the self-cleavage came to 0.133.

With C16A C37A, the self-cleavage turned out to be 0.377.

For the variant C6A U20G, the self-cleavage is 0.518.

As to U7A A11G, the self-cleavage worked out at 0.855.

Take G15C A64C: the self-cleavage was found to be 0.162.

Regarding A11G C16A, the self-cleavage was determined as 0.825.

For A22U U70C, the self-cleavage was found to be 0.876.

For the variant U60A U62G, the self-cleavage was 0.0972.

Turning to U33G G54C, the self-cleavage came out at 0.145.

Consider G51C G69U, for which the self-cleavage came to 0.224.

Turning to G68U U70A, the self-cleavage stood at 0.269.

In the case of A39U U67A, the self-cleavage worked out at 0.73.

For the variant U8C A36U, the self-cleavage was 0.393.

For G1U G51U, the self-cleavage worked out at 0.133.

In the case of U2G C4A, the self-cleavage stood at 0.242.

For U60C A61C, the self-cleavage was 0.264.

C16A G21U: the self-cleavage was determined as 0.72.

G17A G21C: the self-cleavage turned out to be 0.834.

Turning to A41G U53G, the self-cleavage was 1.05.

As for C6U C18U, the self-cleavage came out at 0.82.

In the case of C4U C50A, the self-cleavage came out at 0.203.

Regarding C12G A23G, the self-cleavage came to 0.853.

As to G15U G17C, the self-cleavage is 0.881.

In the case of C4A G32C, the self-cleavage amounted to 0.155.

On to U14G U33G, for which the self-cleavage was determined as 0.127.

With A30G G40A, the self-cleavage was 0.0732.

For the variant U2A U58G, the self-cleavage turned out to be 0.161.

On to G27A C37U, for which the self-cleavage stood at 0.32.

Take A43C A71U: the self-cleavage is 0.159.

On to U2A C65G, for which the self-cleavage was 0.146.

Regarding U9A A24G, the self-cleavage stood at 0.461.

With A59U G69C, the self-cleavage turned out to be 0.323.

Regarding C38A G51A, the self-cleavage was 0.349.

A49G C66U: the self-cleavage was found to be 0.258.

As for C3A G19C, the self-cleavage was 0.535.

Consider A11G A47G, for which the self-cleavage was found to be 0.0539.

U63G C66A: the self-cleavage is 0.119.

Take G42C U53C: the self-cleavage came out at 0.491.

For the variant U55A A71U, the self-cleavage was determined as 0.18.

As for U7G A41G, the self-cleavage was 0.946.

As for C48A U63G, the self-cleavage is 0.229.

On to C37G A59C, for which the self-cleavage is 0.0453.

As for A11G A28U, the self-cleavage stood at 0.447.

G15U G57U: the self-cleavage was 0.296.

As to A36U G69A, the self-cleavage came to 0.173.

Consider G40C A45C, for which the self-cleavage came out at 0.0755.

Regarding A31U A59U, the self-cleavage worked out at 0.201.

As to U33G U60A, the self-cleavage was 0.0846.

On to G13U G54A, for which the self-cleavage came out at 0.518.

Take A31G A39U: the self-cleavage was determined as 0.105.

As for G57C A64U, the self-cleavage was determined as 0.095.

Take U20G G54A: the self-cleavage was 0.417.

As for G13C U60G, the self-cleavage was found to be 0.479.

As to G21C A26C, the self-cleavage was 0.164.

C3G G42U: the self-cleavage worked out at 0.188.

For the variant U14A A23U, the self-cleavage was 0.701.

Turning to G51A U63C, the self-cleavage came to 0.109.

Consider G40U C48U, for which the self-cleavage was 0.181.

Take A23G U70A: the self-cleavage was 0.741.

Consider G17U C50G, for which the self-cleavage is 0.192.

For C18A C48A, the self-cleavage was 0.14.

Turning to U14C G25A, the self-cleavage worked out at 0.734.

Consider A35U G69C, for which the self-cleavage amounted to 0.368.

As for C18G A22G, the self-cleavage worked out at 0.804.

As for C10A U14A, the self-cleavage was determined as 0.661.

Regarding C18A U53A, the self-cleavage turned out to be 1.02.

As for C48U U60C, the self-cleavage amounted to 0.389.

Take U9G A24U: the self-cleavage came out at 0.483.

With U33G A71U, the self-cleavage worked out at 0.067.

On to G19C A59C, for which the self-cleavage turned out to be 0.225.

Take U5A A31U: the self-cleavage came out at 0.14.

As to G21A A49G, the self-cleavage amounted to 0.469.

Turning to U60A C65G, the self-cleavage was found to be 0.254.

Regarding A36G U63A, the self-cleavage was found to be 0.23.

As for U5C C66U, the self-cleavage came out at 0.38.

Consider A30C C37A, for which the self-cleavage turned out to be 0.0529.

On to A24U A61G, for which the self-cleavage amounted to 0.231.

With G32U C37U, the self-cleavage came to 0.161.

Consider U5A G27U, for which the self-cleavage amounted to 0.116.

For G17U U63C, the self-cleavage was 0.164.

With G51U G56C, the self-cleavage amounted to 0.201.

As for A59C C66U, the self-cleavage worked out at 0.107.

As to U14G A61U, the self-cleavage amounted to 0.2.

For the variant A43U A71C, the self-cleavage was 0.396.

In the case of G15U C48U, the self-cleavage came to 0.149.

On to G27C G51C, for which the self-cleavage worked out at 0.135.

As for C38G U62G, the self-cleavage worked out at 0.0875.

Consider A31U G42C, for which the self-cleavage was 0.0816.

G42C C66G: the self-cleavage came to 0.137.

On to U2C U58C, for which the self-cleavage was 0.175.

For C12A G19U, the self-cleavage is 0.995.

Take G1U A23G: the self-cleavage was found to be 0.183.

Consider A28C, for which the self-cleavage turned out to be 0.497.

Turning to C10U C18A, the self-cleavage was determined as 0.956.

On to C37U C48U, for which the self-cleavage is 0.144.

With A24C U58A, the self-cleavage is 0.265.

Regarding A31C U60C, the self-cleavage came out at 0.188.

For the variant U2G C16A, the self-cleavage came out at 0.398.

In the case of U62C U70G, the self-cleavage is 0.126.

In the case of G13U C46A, the self-cleavage came out at 0.193.

Take C10G C18A: the self-cleavage was 0.907.

Turning to C4U C37A, the self-cleavage turned out to be 0.158.

On to U14A A49G, for which the self-cleavage amounted to 0.554.

As to A45C A49U, the self-cleavage was 0.202.

G54A G56U: the self-cleavage was determined as 0.104.

Turning to G15U A47G, the self-cleavage turned out to be 0.116.

As to U14A G25C, the self-cleavage is 0.418.

As for G1A A35U, the self-cleavage turned out to be 0.142.

For the variant U2G G17C, the self-cleavage was 0.367.
